B1: MAb AR1A (antibody, V domains shown)
VH: LEQSGAEVKKPGSSVKVSCRASGSPYSSYTITWVRQAPGQGLEWMGGIILMTGKANYAQKFQGRVTITADRATATAYMEMSSLTSDDTAIYYCARDPYVYAGDDVRSLSRWGQGTPVIVSS
VL: not shown
notes: also called IgG1 of Fab B2
B2: MAb AR1B (antibody, V domains shown)
VH: LESGGGLVQPGGSLRLSCEASGYYFSSFAMSWVRQTPGKGLEWVSSIAGGTLGRTSYRDSVKGRFTISRDNSKNTVFLHMNNLRPEDTAVYYCAKDPLLFAGGPNWFDHWGQGTLVTVSS
VL: not shown
notes: also called IgG1 of Fab D1
B3: MAb AR2A (antibody, V domains shown)
VH: LEQSGAEMKKPGASLKVSCKTSGYTFDDYGVTWVRQAPGQGLEWMGWISAYSGNTFYARKFQGRVTMTTDPSTRTAYMELRSLRSDDTAVYFCARDRGLAINGVVFPYFGLDVWGQGTTVTVSS
VL: ELTQSPVSLPVTPGEPASISCRSSQSLLHSNGNHYLDWYLQKPGQSPQLLMYLGSNRASGVPDRFSGSGSGTDFTLKISRVEAEDVGVYYCMQGLQTPWTFGQGTKVEIKR
notes: also called IgG1 of Fab G

Legend:
Assay in all cases: ELISA, alanine mutant E1E2
H77 E1E2 mutant Y485A = H77 E1E2 mutant Y485A (HCV isolate H77, UniProt P27958 192-383; P27958 384-746)
H77 E1E2 mutant N417A = H77 E1E2 mutant N417A (HCV isolate H77, UniProt P27958 192-383; P27958 384-746)
H77 E1E2 mutant T534A = H77 E1E2 mutant T534A (HCV isolate H77, UniProt P27958 192-383; P27958 384-746)
H77 E1E2 mutant H421A = H77 E1E2 mutant H421A (HCV isolate H77, UniProt P27958 192-383; P27958 384-746)
H77 E1E2 mutant D533A = H77 E1E2 mutant D533A (HCV isolate H77, UniProt P27958 192-383; P27958 384-746)
H77 E1E2 mutant V538A = H77 E1E2 mutant V538A (HCV isolate H77, UniProt P27958 192-383; P27958 384-746)
H77 E1E2 mutant W529A = H77 E1E2 mutant W529A (HCV isolate H77, UniProt P27958 192-383; P27958 384-746)
H77 E1E2 mutant L413A = H77 E1E2 mutant L413A (HCV isolate H77, UniProt P27958 192-383; P27958 384-746)
H77 E1E2 mutant N423A = H77 E1E2 mutant N423A (HCV isolate H77, UniProt P27958 192-383; P27958 384-746)
H77 E1E2 mutant N540A = H77 E1E2 mutant N540A (HCV isolate H77, UniProt P27958 192-383; P27958 384-746)
H77 E1E2 mutant Q412A = H77 E1E2 mutant Q412A (HCV isolate H77, UniProt P27958 192-383; P27958 384-746)
H77 E1E2 mutant W549A = H77 E1E2 mutant W549A (HCV isolate H77, UniProt P27958 192-383; P27958 384-746)
H77 E1E2 mutant Y489A = H77 E1E2 mutant Y489A (HCV isolate H77, UniProt P27958 192-383; P27958 384-746)
H77 E1E2 mutant I422A = H77 E1E2 mutant I422A (HCV isolate H77, UniProt P27958 192-383; P27958 384-746)
H77 E1E2 mutant F550A = H77 E1E2 mutant F550A (HCV isolate H77, UniProt P27958 192-383; P27958 384-746)
H77 E1E2 mutant Y527A = H77 E1E2 mutant Y527A (HCV isolate H77, UniProt P27958 192-383; P27958 384-746)
H77 E1E2 mutant T416A = H77 E1E2 mutant T416A (HCV isolate H77, UniProt P27958 192-383; P27958 384-746)
H77 E1E2 mutant P544A = H77 E1E2 mutant P544A (HCV isolate H77, UniProt P27958 192-383; P27958 384-746)
H77 E1E2 mutant D535A = H77 E1E2 mutant D535A (HCV isolate H77, UniProt P27958 192-383; P27958 384-746)
H77 E1E2 mutant N532A = H77 E1E2 mutant N532A (HCV isolate H77, UniProt P27958 192-383; P27958 384-746)
H77 E1E2 mutant R543A = H77 E1E2 mutant R543A (HCV isolate H77, UniProt P27958 192-383; P27958 384-746)
H77 E1E2 mutant W420A = H77 E1E2 mutant W420A (HCV isolate H77, UniProt P27958 192-383; P27958 384-746)
H77 E1E2 mutant P525A = H77 E1E2 mutant P525A (HCV isolate H77, UniProt P27958 192-383; P27958 384-746)
H77 E1E2 mutant T526A = H77 E1E2 mutant T526A (HCV isolate H77, UniProt P27958 192-383; P27958 384-746)
H77 E1E2 mutant S419A = H77 E1E2 mutant S419A (HCV isolate H77, UniProt P27958 192-383; P27958 384-746)
H77 E1E2 mutant H488A = H77 E1E2 mutant H488A (HCV isolate H77, UniProt P27958 192-383; P27958 384-746)
H77 E1E2 mutant I414A = H77 E1E2 mutant I414A (HCV isolate H77, UniProt P27958 192-383; P27958 384-746)
H77 E1E2 mutant G523A = H77 E1E2 mutant G523A (HCV isolate H77, UniProt P27958 192-383; P27958 384-746)

Binder	binding vs wild-type E1E2 (H77 E1E2 mutant Y485A) [%]	binding vs wild-type E1E2 (H77 E1E2 mutant N417A) [%]	binding vs wild-type E1E2 (H77 E1E2 mutant T534A) [%]	binding vs wild-type E1E2 (H77 E1E2 mutant H421A) [%]	binding vs wild-type E1E2 (H77 E1E2 mutant D533A) [%]	binding vs wild-type E1E2 (H77 E1E2 mutant V538A) [%]	binding vs wild-type E1E2 (H77 E1E2 mutant W529A) [%]	binding vs wild-type E1E2 (H77 E1E2 mutant L413A) [%]	binding vs wild-type E1E2 (H77 E1E2 mutant N423A) [%]	binding vs wild-type E1E2 (H77 E1E2 mutant N540A) [%]	binding vs wild-type E1E2 (H77 E1E2 mutant Q412A) [%]	binding vs wild-type E1E2 (H77 E1E2 mutant W549A) [%]	binding vs wild-type E1E2 (H77 E1E2 mutant Y489A) [%]	binding vs wild-type E1E2 (H77 E1E2 mutant I422A) [%]	binding vs wild-type E1E2 (H77 E1E2 mutant F550A) [%]	binding vs wild-type E1E2 (H77 E1E2 mutant Y527A) [%]	binding vs wild-type E1E2 (H77 E1E2 mutant T416A) [%]	binding vs wild-type E1E2 (H77 E1E2 mutant P544A) [%]	binding vs wild-type E1E2 (H77 E1E2 mutant D535A) [%]	binding vs wild-type E1E2 (H77 E1E2 mutant N532A) [%]	also measured
B1	17	17	100	167	101	17	367	103	79	0	145	0	189	106	379	61	23	69	235	82	binding vs wild-type E1E2 (H77 E1E2 mutant R543A): 239%; binding vs wild-type E1E2 (H77 E1E2 mutant W420A): 141%; binding vs wild-type E1E2 (H77 E1E2 mutant P525A): 101%; binding vs wild-type E1E2 (H77 E1E2 mutant T526A): 81%; binding vs wild-type E1E2 (H77 E1E2 mutant S419A): 84%; binding vs wild-type E1E2 (H77 E1E2 mutant H488A): 91%; binding vs wild-type E1E2 (H77 E1E2 mutant I414A): 128%; binding vs wild-type E1E2 (H77 E1E2 mutant G523A): 112%
B2	30	54	49	72	90	52	94	109	38	25	48	0	52	58	257	83	99	16	121	73	binding vs wild-type E1E2 (H77 E1E2 mutant R543A): 135%; binding vs wild-type E1E2 (H77 E1E2 mutant W420A): 41%; binding vs wild-type E1E2 (H77 E1E2 mutant P525A): 33%; binding vs wild-type E1E2 (H77 E1E2 mutant T526A): 48%; binding vs wild-type E1E2 (H77 E1E2 mutant S419A): 118%; binding vs wild-type E1E2 (H77 E1E2 mutant H488A): 63%; binding vs wild-type E1E2 (H77 E1E2 mutant I414A): 147%; binding vs wild-type E1E2 (H77 E1E2 mutant G523A): 33%
B3	67	58	84	84	60	62	132	92	69	30	95	151	138	95	156	149	99	126	133	58	binding vs wild-type E1E2 (H77 E1E2 mutant R543A): 125%; binding vs wild-type E1E2 (H77 E1E2 mutant W420A): 80%; binding vs wild-type E1E2 (H77 E1E2 mutant P525A): 109%; binding vs wild-type E1E2 (H77 E1E2 mutant T526A): 101%; binding vs wild-type E1E2 (H77 E1E2 mutant S419A): 93%; binding vs wild-type E1E2 (H77 E1E2 mutant H488A): 72%; binding vs wild-type E1E2 (H77 E1E2 mutant I414A): 180%; binding vs wild-type E1E2 (H77 E1E2 mutant G523A): 129%

Source: patent publication US20110311550A1 (Scripps Research, published 2011)
